Assay results taken from patent publication US20210077638A1.

What was measured:
[1] = biological target: human MET on EBC-1, NCI-H441 and NCI-H358 cells (human) (UniProt P08581); assay: saturation radioligand binding (antibody binding capacity) assay with 89Zr-DFO-Comp1 on NCI-H441 cells, 4 C, 45 min, gamma counting; x axis is total antibody dosed, not free
[2] = biological target: human MET on EBC-1, NCI-H441 and NCI-H358 cells (human) (UniProt P08581); assay: saturation radioligand binding on NCI-H441 cells, 4 C, single-site fit, n=4
[3] = biological target: human MET on EBC-1, NCI-H441 and NCI-H358 cells (human) (UniProt P08581); assay: saturation radioligand binding (antibody binding capacity) assay with 89Zr-DFO-Comp1 on EBC-1 cells, 4 C, 45 min, gamma counting; x axis is total antibody dosed, not free
[4] = biological target: human MET on EBC-1, NCI-H441 and NCI-H358 cells (human) (UniProt P08581); assay: saturation radioligand binding on NCI-H358 cells, 4 C, single-site fit, n=2
[5] = biological target: human MET on EBC-1, NCI-H441 and NCI-H358 cells (human) (UniProt P08581); assay: saturation radioligand binding on EBC-1 cells, 4 C, single-site fit, n=4

Chain of human MET on EBC-1, NCI-H441 and NCI-H358 cells (human) (P08581 25-1390): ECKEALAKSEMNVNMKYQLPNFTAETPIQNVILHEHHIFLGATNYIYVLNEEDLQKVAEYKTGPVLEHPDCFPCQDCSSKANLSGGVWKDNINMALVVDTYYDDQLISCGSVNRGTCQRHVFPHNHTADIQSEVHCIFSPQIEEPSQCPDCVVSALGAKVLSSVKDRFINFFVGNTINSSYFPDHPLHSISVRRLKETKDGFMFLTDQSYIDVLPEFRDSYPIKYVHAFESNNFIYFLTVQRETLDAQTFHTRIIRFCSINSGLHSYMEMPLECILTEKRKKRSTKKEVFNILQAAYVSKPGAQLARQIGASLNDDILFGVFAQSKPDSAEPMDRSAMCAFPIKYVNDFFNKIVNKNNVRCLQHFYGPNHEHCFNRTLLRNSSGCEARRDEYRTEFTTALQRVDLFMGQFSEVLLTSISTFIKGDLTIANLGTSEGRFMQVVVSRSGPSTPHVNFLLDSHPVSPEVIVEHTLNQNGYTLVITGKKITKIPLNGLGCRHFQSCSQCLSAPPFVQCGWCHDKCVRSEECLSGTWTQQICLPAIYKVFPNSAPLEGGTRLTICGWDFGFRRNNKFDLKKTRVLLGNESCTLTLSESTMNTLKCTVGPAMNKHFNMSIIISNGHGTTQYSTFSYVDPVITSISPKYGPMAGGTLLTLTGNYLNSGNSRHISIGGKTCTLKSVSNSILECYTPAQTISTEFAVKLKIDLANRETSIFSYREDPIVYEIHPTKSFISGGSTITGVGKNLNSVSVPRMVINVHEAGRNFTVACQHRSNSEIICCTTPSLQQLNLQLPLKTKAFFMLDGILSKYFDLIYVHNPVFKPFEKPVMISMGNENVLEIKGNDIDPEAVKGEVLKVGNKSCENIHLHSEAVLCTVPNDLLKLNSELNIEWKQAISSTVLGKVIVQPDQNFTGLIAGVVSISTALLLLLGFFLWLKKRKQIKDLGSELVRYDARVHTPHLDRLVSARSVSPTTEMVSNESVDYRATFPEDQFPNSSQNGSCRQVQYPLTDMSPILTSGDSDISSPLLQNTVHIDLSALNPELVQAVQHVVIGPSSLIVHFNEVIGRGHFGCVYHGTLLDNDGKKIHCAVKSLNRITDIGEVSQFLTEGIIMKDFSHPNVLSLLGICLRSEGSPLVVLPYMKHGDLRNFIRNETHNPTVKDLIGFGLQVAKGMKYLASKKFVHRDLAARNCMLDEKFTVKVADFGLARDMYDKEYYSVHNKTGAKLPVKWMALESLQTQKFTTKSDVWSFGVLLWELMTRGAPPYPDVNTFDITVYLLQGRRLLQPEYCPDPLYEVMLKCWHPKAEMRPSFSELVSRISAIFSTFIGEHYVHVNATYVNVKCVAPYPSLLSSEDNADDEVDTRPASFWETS

- EC50 (read off the curve) [1]: 3 nM
- ABC (antibody binding capacity) [2]: 62000 per cell
- EC50 (read off the curve) [3]: 4 nM
- ABC (antibody binding capacity) [4]: 21000 per cell
- ABC (antibody binding capacity) [5]: 250000 per cell
B1: 89Zr-DFO-anti-Met single-arm comparator antibody (Comp1; Onartuzumab) (antibody, INN chains, looked up, V domains shown)
VH: EVQLVESGGGLVQPGGSLRLSCAASGYTFTSYWLHWVRQAPGKGLEWVGMIDPSNSDTRFNPNFKDRFTISADTSKNTAYLQMNSLRAEDTAVYYCATYRSYVTPLDYWGQGTLVTVSS
VL: DIQMTQSPSSLSASVGDRVTITCKSSQSLLYTSSQKNYLAWYQQKPGKAPKLLIYWASTRESGVPSRFSGSGSGTDFTLTISSLQPEDFATYYCQQYYAYPWTFGQGTKVEIK
modifications: one-armed monovalent 89Zr-DFO label
